Results taken from the supplement of paper PMC9170038.

Tested on: MS2 coat protein
Experiment: apparent KD of MS2 coat protein; designed switch direction (-1 OFF switch, 1 ON switch): -1; higher = weaker reporter binding
In short: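 Designed RNA switches with common flanks were made on Illumina chips by stalled E. coli RNA polymerase. Titration with SNAP-549-labelled MS2 coat protein doubled from 0.7 or 1.5 nM up to 3 µM. Apparent KD is each design's median over clusters after curve-fitting normalised fluorescence.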

[1] = input ligand: microRNA oligo, concentration not stated
[2] = Eterna round: R95, input ligand: microRNA oligo, concentration not stated
[3] = Eterna round: R95, input ligand: FMN 200 uM
[4] = Eterna round: R95, input ligand: none

Sequence	apparent KD of MS2 coat protein (input ligand: FMN 200 uM)	apparent KD of MS2 coat protein [1]	apparent KD of MS2 coat protein (input ligand: none)	apparent KD of MS2 coat protein [2]	further results
UUUAUAUAUGAAGGAUAUACUUAACAUGAGGAUCACCCAUGUGGUGUUGUGAGUGAGUGAGUUUAGUAGAAGGUCAAGUAUUUU [JMF's solution 49] (Eterna round: R96, puzzle: Exclusion NG 2)	719 nM	177 nM	198 nM		
UUUAUGUAAGGAUAUAUGAGUCACGGAAAUAAACCGUGAAGAUAGAAGGUACAUGAGGAUCACCCAUGUAAGGC [Mod of Anonveat 8 - Jieux - Exclusion 4] (Eterna round: R97, puzzle: Exclusion 4)	40.1 nM		22.9 nM		
UUUAUGUCAGGAUAUACAUGAGGAUCACCCAUGUAUAUCUUAAAGUAUACAUGGGAAUGUAGAAGGGACCUCCU [Omei Ex3 Pseudoloop 5] (Eterna round: R97, puzzle: Exclusion 3)	43.8 nM		35 nM		
UUUAUGUCAGGAUAUGAUUAGAUCUACUUUUGUAGAUCUAAUCAGAAGGGACAUGAGGAUCACCCAUGUAGUUU [Ex4 - 3 - 14] (puzzle: Exclusion 4)				116 nM	
UUUAUUAAUUAAUAUAAUAAGAUCACAUGAGGAUCACCCAUGUAGGAUAUCAGCUCGUUUAGAGCUGAGAAGGACAUAAUUAUA [ExNG3/1-B2] (Eterna round: R96, puzzle: Exclusion NG 3)	135 nM	33.6 nM	35.9 nM		
UUUCAGCUAGGAUAUGCCCUGAUGCACAUGAGGAUCACCCAUGUCGGCUUGUGUAUGAGCGCAGAAGGAGCGAAAA [EX5 C.17] (Eterna round: R97, puzzle: Exclusion 5)	783 nM		268 nM		
UUUCUCUGGGCGUCUUCUUACAUGAGGAUCACCCAUGUUUCAUAGGAUAUGCUAUAGUGUUACAUGCAGAAGGAUGUUUGUUUU [JR_ExcNG3_Sub080] (Eterna round: R96, puzzle: Exclusion NG 3)		189 nM			
UUUGAAUAGGUAGGAUAUACAUACAUUCCUACAUUACUAACAUGAGGAUCACCCAUGUAUACAUUGUAGAAGGACCAGAUUGAU [JR_ExcNG2_Sub039] (Eterna round: R96, puzzle: Exclusion NG 2)		18.8 nM			
UUUGAUAGCACAGGAUAUUGUCAUUUGAGUUGUCAAGAAGGGUGUACAUGAGGAUCACCCAUGUAAUGGUUGCCUCGCUGACUU [JR_ExcNG1_Sub007] (Eterna round: R96, puzzle: Exclusion NG 1)		105 nM			
UUUGAUUGCACAGGAUAUUGUCAUUUGAGUUGUCAAGAAGGGUGUACAUGAGGAUCACCCAUGUUAUGCUUUCCUCGCUCACUU [JR_ExcNG1_Sub009] (Eterna round: R96, puzzle: Exclusion NG 1)	15.5 nM	12.8 nM	20 nM		
UUUGCAAGCUUUAGAUCCCACAUGAGGAUCACCCAUGUUGCUGCCGUGAGGUAGCUUUUAACUAAUGCUCGUCUUAU [JL TOV1 3.45] (Eterna round: R97, puzzle: Sensor, turn-off variant 1)	88.2 nM		163 nM		
UUUGUUUAUGUAGGAUAUGCCUGGCGUGCCUUUGCAGAAGGACAUGAGGAUCACCCAUGUAUUGCGGUCUGCGUUCAGAUCGCC [salish99_ExNG1_r4_036] (Eterna round: R96, puzzle: Exclusion NG 1)	29.6 nM	17.4 nM	23 nM		
UUUGUUUUGCAAGGAUAUGUUUAAUUUUAGUUUCCUUACACAUGAGGAUCACCCAUGUUAUACUUACAGAAGGUGCGUAAUUUG [Excl-NG2-LRO03] (Eterna round: R96, puzzle: Exclusion NG 2)		122 nM			
UUUGUUUUGGUAGGAUAUACUUUUAUUUUCUCUUUCCUUACAUGAGGAUCACCCAUGUUUACAUUGUAGAAGGACCACUUUGUU [JR_ExcNG2_Sub051] (Eterna round: R96, puzzle: Exclusion NG 2)		15.5 nM			
UUUUAACAUGAGGAUCACCCAUGUCAGGAUAUGGUUUUUUUUUUUUUUUUUUUUUUUUCCAGAAGGGACAUUUU [My solution] (puzzle: Exclusion 1)				5.77 nM	apparent KD of MS2 coat protein [3]: 42.5 nM; apparent KD of MS2 coat protein [4]: 3.88 nM
UUUUAACAUGAGGAUCACCCAUGUGAGGAUAUCGAAAUUUAUAUUAAUAUUAAUAAAUCGAGAAGGCACAUUUU [JMF 20] (puzzle: Exclusion 1)				109 nM	
UUUUAACAUGAGGAUCACCCAUGUGAGGAUAUCGAAAUUUAUAUUAAUAUUAUUUAUUCGAGAAGGCACAUUUU [JMF 45] (puzzle: Exclusion 1)				118 nM	
UUUUAACAUGAGGAUCACCCAUGUGAGGAUAUCGAAAUUUAUAUUAAUAUUUAUAAUACGAGAAGGCACAUUUU [JMF 54] (puzzle: Exclusion 1)				84.4 nM	

Sequence	apparent KD of MS2 coat protein (input ligand: FMN 200 uM)	apparent KD of MS2 coat protein [1]	apparent KD of MS2 coat protein (input ligand: none)	apparent KD of MS2 coat protein [2]	further results
UUUUAACAUGAGGAUCACCCAUGUGAGGAUAUCGAAAUUUAUAUUAAUAUUUAUAUAACGAGAAGGCACAUUUU [JMF 55] (puzzle: Exclusion 1)				65.3 nM	
UUUUAACAUGAGGAUCACCCAUGUGAGGAUAUCGAAAUUUAUAUUAAUAUUUAUAUUACGAGAAGGCACAUUUU [JMF 58] (Eterna round: R96, puzzle: Exclusion 1)	103 nM	55.3 nM	62.9 nM		
UUUUAACAUGAGGAUCACCCAUGUGAGGAUAUCGAAAUUUAUAUUAAUAUUUAUAUUACGAGAAGGCACAUUUU [JMF 58] (puzzle: Exclusion 1)				75.9 nM	
UUUUAACAUGAGGAUCACCCAUGUGAGGAUAUCGAAAUUUAUAUUUAUAUUUAUAAAACGAGAAGGCACAUUUU [JMF 91] (puzzle: Exclusion 1)				113 nM	
UUUUAACAUGAGGAUCACCCAUGUGAGGAUAUCGAAAUUUAUAUUUAUAUUUAUAAAUCGAGAAGGCACAUUUU [JMF 92] (puzzle: Exclusion 1)				111 nM	
UUUUAACAUGAGGAUCACCCAUGUGAGGAUAUCGAAAUUUAUAUUUAUAUUUAUAAUACGAGAAGGCACAUUUU [JMF 94] (puzzle: Exclusion 1)				82.3 nM	
UUUUAACAUGAGGAUCACCCAUGUGAGGAUAUCGAAAUUUAUAUUUAUAUUUAUUAAACGAGAAGGCACAUUUU [JMF 99] (puzzle: Exclusion 1)				66.9 nM	
UUUUAACAUGAGGAUCACCCAUGUGAGGAUAUCGAAUUUUUUAUUAAUAUUAAUAAAACGAGAAGGCACAUUUU [JMF 16] (puzzle: Exclusion 1)				55.2 nM	
UUUUAACAUGAGGAUCACCCAUGUGAGGAUAUCGUAAUUUUUAUUAAUAUUAAUAAAACGAGAAGGCACAUUUU [JMF 13] (puzzle: Exclusion 1)				66.8 nM	
UUUUAACAUGAGGAUCACCCAUGUGAGGAUAUCGUAUUUUUUUUUUUUUUUUUUUUUUCGAGAAGGCACAUUUU [My solution] (puzzle: Exclusion 1)				6.56 nM	apparent KD of MS2 coat protein [3]: 1.24 nM; apparent KD of MS2 coat protein [4]: 16.5 nM
UUUUAACAUGAGGAUCACCCAUGUGAGGAUAUGGUAUUUUUUUUUUUUUUUUUUUUUUCCAGAAGGCACAUUUU [My solution] (puzzle: Exclusion 1)				35.1 nM	apparent KD of MS2 coat protein [3]: 38.4 nM; apparent KD of MS2 coat protein [4]: 74.9 nM
UUUUAACAUGAGGAUCACCCAUGUGAGGAUAUGGUUUUUUUUUUUUUUUUUUUUUUUUCCAGAAGGCACAUUUU [My solution] (Eterna round: R96, puzzle: Exclusion 1)	269 nM	44.2 nM	31.6 nM		
UUUUAACAUGAGGAUCACCCAUGUGAGGAUAUGGUUUUUUUUUUUUUUUUUUUUUUUUCCAGAAGGCACAUUUU [My solution] (puzzle: Exclusion 1)				13.7 nM	apparent KD of MS2 coat protein [3]: 25.4 nM; apparent KD of MS2 coat protein [4]: 119 nM
UUUUACAAGCUAAGAUCCUACAUGAGGAUCACCCAUGUGGUCCGGUGACGUGAGUCACCGGACUUAGCUCGUCUUGU [JL TOV1 3.70] (Eterna round: R97, puzzle: Sensor, turn-off variant 1)	80.3 nM		88.2 nM		
UUUUACAAGCUUAGAUCCUACAUGAGGAUCACCCAUGUGGUCCGGUGACGUGAGUCACCGGACUAAGCUCGUCUUGU [JL TOV1 3.71] (Eterna round: R97, puzzle: Sensor, turn-off variant 1)	124 nM		114 nM		
UUUUACAGGCUUAGAUCCUACAUGAGGAUCACCCAUGUGGUGGCGUGUCGUGAGACAUGCCACUAAGCUCGUCUUGU [JL TOV1 3.73] (Eterna round: R97, puzzle: Sensor, turn-off variant 1)	98.3 nM		103 nM		
UUUUACAUCUAUGGGAGUGACAUGAGGAUCACCCAUGUAUGUCUUGUUUUUUGUUCGUCUAGGACUUUCUGAUCAGU [JR_SV3TOV1_Sub033] (puzzle: Sensor v3, turn-off variant 1)				222 nM	apparent KD of MS2 coat protein [3]: 565 nM; apparent KD of MS2 coat protein [4]: 730 nM
